In IntAct's records for PubMed 16628218:

Biological target: T1, chio_human CHN2 (UniProt P52757)
T1 sequence: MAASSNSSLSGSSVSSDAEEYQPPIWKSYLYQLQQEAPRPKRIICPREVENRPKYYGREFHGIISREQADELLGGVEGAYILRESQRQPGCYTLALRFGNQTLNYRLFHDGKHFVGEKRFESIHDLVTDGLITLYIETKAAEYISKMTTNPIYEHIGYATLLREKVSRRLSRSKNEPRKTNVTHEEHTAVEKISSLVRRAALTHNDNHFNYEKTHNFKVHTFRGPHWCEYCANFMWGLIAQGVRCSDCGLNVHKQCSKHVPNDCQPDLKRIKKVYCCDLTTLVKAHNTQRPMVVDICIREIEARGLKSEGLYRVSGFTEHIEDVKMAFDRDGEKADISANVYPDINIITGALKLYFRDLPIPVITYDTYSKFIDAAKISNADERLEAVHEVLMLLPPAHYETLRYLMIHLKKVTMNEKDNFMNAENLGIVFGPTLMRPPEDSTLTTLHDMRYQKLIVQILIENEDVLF

## Ras-related C3 botulinum toxin substrate 1 (Homo sapiens) (from UniProt P63000) G12V
  effect of a mutation on the interaction: increasing interaction

## Ras-related C3 botulinum toxin substrate 1 (Homo sapiens) (from UniProt P63000) T17N
  effect of a mutation on the interaction: disrupting interaction
